{
  "source": "paper PMC10108200",
  "about": "“Reaction Pathways for the Enzymatic Degradation of Poly(Ethylene Terephthalate): What Characterizes an Efficient PET‐Hydrolase?” (Chembiochem, 2022)",
  "proteins": {"B1": {"name": "LCC (unidentified prokaryotic organism) (protein)", "chain": "QSNPYQRGPNPTRSALTADGPFSVATYTVSRLSVSGFGGGVIYYPTGTSLTFGGIAMSPGYTADASSLAWLGRRLASHGFVVLVINTNSRFDYPDSRASQLSAALNYLRTSSPSAVRARLDANRLAVAGHSMGGGGTLRIAEQNPSLKAAVPLTPWHTDKTFNTSVPVLIVGAEADTVAPVSQHAIPFYQNLPSTTPKVYVELDNASHFAPNSNNAAISVYTISWMKLWVDNDTRYRQFLCNVNDPALSDFRTNNRHCQ", "notes": "heterologously expressed and purified"}, "B2": {"name": "TfC (Thermobifida fusca YX) (protein)", "chain": "ANPYERGPNPTDALLEASSGPFSVSEENVSRLSASGFGGGTIYYPRENNTYGAVAISPGYTGTEASIAWLGERIASHGFVVITIDTITTLDQPDSRAEQLNAALNHMINRASSTVRSRIDSSRLAVMGHSMGGGGTLRLASQRPDLKAAIPLTPWHLNKNWSSVTVPTLIIGADLDTIAPVATHAKPFYNSLPSSISKAYLELDGATHFAPNIPNKIIGKYSVAWLKRFVDNDTRYTQFLCPGPRDGLFGEVEEYRSTCPF"}, "B3": {"name": "HiC (Mycothermus thermophilus) (protein)", "chain": "QLGAIENGLESGSANACPDAILIFARGSTEPGNMGITVGPALANGLESHIRNIWIQGVGGPYDAALATNFLPRGTSQANIDEGKRLFALANQKCPNTPVVAGGYSQGAALIAAAVSELSGAVKEQVKGVALFGYTQNLQNRGGIPNYPRERTKVFCNVGDAVCTGTLIITPAHLSYTIEARGEAARFLRDRIRA"}},
  "assay_in_all_cases": "initial rates by RP-HPLC, Michaelis-Menten fit",
  "key": {"[1]": {"substrate": "O=C(O)c1ccc(C(=O)OCCO)cc1", "format": "biochemical, unidentified prokaryotic organism", "details": "50 °C, 2 h, 0-2 mM substrate, 0.01-0.5 μM enzyme", "excerpt": "(§1) initial rates by RP-HPLC, Michaelis-Menten fit on LCC"}, "[2]": {"substrate": "O=C(O)c1ccc(C(=O)OCCOC(=O)c2ccc(C(=O)OCCOC(=O)c3ccc(C(=O)O)cc3)cc2)cc1", "format": "biochemical, unidentified prokaryotic organism", "details": "50 °C, 10 min, 0-2 mM substrate, 0.01-0.5 μM enzyme", "excerpt": "as §1"}, "[3]": {"substrate": "O=C(O)c1ccc(C(=O)OCCOC(=O)c2ccc(C(=O)OCCO)cc2)cc1", "format": "biochemical, unidentified prokaryotic organism", "details": "50 °C, 10 min, 0-2 mM substrate, 0.01-0.5 μM enzyme", "excerpt": "as §1"}, "[4]": {"substrate": "O=C(OCCO)c1ccc(C(=O)OCCO)cc1", "format": "biochemical, unidentified prokaryotic organism", "details": "50 °C, 10 min, 0-2 mM substrate, 0.01-0.5 μM enzyme", "excerpt": "as §1"}, "[5]": {"substrate": "O=C(O)c1ccc(C(=O)OCCO)cc1", "format": "biochemical, Thermobifida fusca", "details": "50 °C, 2 h, 0-2 mM substrate, 0.01-0.5 μM enzyme", "excerpt": "(§2) initial rates by RP-HPLC, Michaelis-Menten fit on TfC"}, "[6]": {"substrate": "O=C(O)c1ccc(C(=O)OCCOC(=O)c2ccc(C(=O)OCCOC(=O)c3ccc(C(=O)O)cc3)cc2)cc1", "format": "biochemical, Thermobifida fusca", "details": "50 °C, 10 min, 0-2 mM substrate, 0.01-0.5 μM enzyme", "excerpt": "as §2"}, "[7]": {"substrate": "O=C(O)c1ccc(C(=O)OCCOC(=O)c2ccc(C(=O)OCCO)cc2)cc1", "format": "biochemical, Thermobifida fusca", "details": "50 °C, 10 min, 0-2 mM substrate, 0.01-0.5 μM enzyme", "excerpt": "as §2"}, "[8]": {"substrate": "O=C(OCCO)c1ccc(C(=O)OCCO)cc1", "format": "biochemical, Thermobifida fusca", "details": "50 °C, 10 min, 0-2 mM substrate, 0.01-0.5 μM enzyme", "excerpt": "as §2"}, "[9]": {"substrate": "O=C(O)c1ccc(C(=O)OCCOC(=O)c2ccc(C(=O)OCCOC(=O)c3ccc(C(=O)O)cc3)cc2)cc1", "format": "biochemical, Mycothermus thermophilus", "details": "50 °C, 10 min, 0-2 mM substrate, 0.01-0.5 μM enzyme", "excerpt": "(§3) initial rates by RP-HPLC, Michaelis-Menten fit on HiC"}, "[10]": {"substrate": "O=C(O)c1ccc(C(=O)OCCOC(=O)c2ccc(C(=O)OCCO)cc2)cc1", "format": "biochemical, Mycothermus thermophilus", "details": "50 °C, 10 min, 0-2 mM substrate, 0.01-0.5 μM enzyme", "excerpt": "as §3"}},
  "data": [
    {"protein": "B1", "values": [
      {"measurement": "Km", "setting": "[1]", "value": "1200 ± 130", "unit": "µM"},
      {"measurement": "kcat", "setting": "[1]", "value": "0.048 ± 0.0033", "unit": "s⁻¹"},
      {"measurement": "Km", "setting": "[2]", "value": "790 ± 410", "unit": "µM"},
      {"measurement": "kcat", "setting": "[2]", "value": "300 ± 122", "unit": "s⁻¹"},
      {"measurement": "Km", "setting": "[3]", "value": "120 ± 35", "unit": "µM"},
      {"measurement": "kcat", "setting": "[3]", "value": "21 ± 1.7", "unit": "s⁻¹"},
      {"measurement": "Km", "setting": "[4]", "value": "960 ± 160", "unit": "µM"},
      {"measurement": "kcat", "setting": "[4]", "value": "6.2 ± 0.62", "unit": "s⁻¹"}
    ]},
    {"protein": "B2", "values": [
      {"measurement": "Km", "setting": "[5]", "value": "3800 ± 91", "unit": "µM"},
      {"measurement": "Km", "setting": "[6]", "value": "170 ± 38", "unit": "µM"},
      {"measurement": "kcat", "setting": "[6]", "value": "62 ± 7.3", "unit": "s⁻¹"},
      {"measurement": "Km", "setting": "[7]", "value": "170 ± 16", "unit": "µM"},
      {"measurement": "kcat", "setting": "[7]", "value": "11 ± 0.35", "unit": "s⁻¹"},
      {"measurement": "Km", "setting": "[8]", "value": "230 ± 67", "unit": "µM"},
      {"measurement": "kcat", "setting": "[8]", "value": "1.1 ± 0.12", "unit": "s⁻¹"}
    ]},
    {"protein": "B3", "values": [
      {"measurement": "Km", "setting": "[9]", "value": "89 ± 21", "unit": "µM"},
      {"measurement": "kcat", "setting": "[9]", "value": "24 ± 2.9", "unit": "s⁻¹"},
      {"measurement": "Km", "setting": "[10]", "value": "77 ± 9.1", "unit": "µM"},
      {"measurement": "kcat", "setting": "[10]", "value": "2.9 ± 0.098", "unit": "s⁻¹"}
    ]}
  ]
}
